Reference: PMC8448731 (Nature Communications, 2021)

Molecular target: T1, SARS-CoV-2 spike RBD with C-terminal 3xFlag tag and N-terminal signal peptide of the spike (RBD-3xFlag) (SARS-CoV-2, Wuhan-Hu-1 type (wild type), UniProt P0DTC2)
T1 construct: also called RBD-3×Flag; wild-type RBD; not shown: 3xFlag, C-terminal, kept
Test: ELISA
Details: one partner purified

Binder	binding result
SR1 (VHH, not shown: 6xHis, C-terminal, kept) VHH: EVQLVESGGGLVQAGDSLRLSCAASGKTGRSVIMGWFRQAPDKEREFVATITRGDDTTNYADSVKGRFTISRDDARNTVYLQMNSLKPEDTAVYYCAAVYFVNDCIVDYWGQGTQVTVSS	binds
SR2 (VHH, not shown: 6xHis, C-terminal, kept) VHH: EVQLVESGGGLVQAGDSLRLSCAASGAFGSNVFMGWFRQAPGKEREFVASITPHHTVTDYADSVRGRFSISADSAKNTVYLQMNSLKPEDTAVYYCAAAIYRNASVLDYWGQGTQVTVSS	binds
SR12c3 (VHH, not shown: 6xHis, C-terminal, kept) VHH: EVQLVESGGGLVQAGDSLRLSCAASGAIVHVFAMGWFRQAPGKEREFVASINLDNDVTNYADSVKGRFTISRDDARNTVYLQMNSLKPEDTAVYYCNATIFTDSGLGDYWGQGTQVTVSS	binds
SR12 (VHH, not shown: 6xHis, C-terminal, kept) VHH: EVQLVESGGGLVQAGDSLRLSCAASGAIVHVFAMGWFRQAPGKEREFVASINLDNDATNYADSVKGRFTISRDDARNTVYLQMNSLKPEDTAVYYCNATIFMDSDLGDYWGQGTQVTVSS	binds
SR6c3 (VHH, not shown: 6xHis, C-terminal, kept) VHH: EVQLVESGGGLVQAGDSLRLSCAASGDCHVLWRMGWFRQAPGKEREFVAAISLDGQFTNYADSVRGRFSISADSAKNTVYLQMNSLKPEDTAVYYCAALPFLDYWGQGTQVTVSS	binds
SR6v1 (VHH, not shown: 6xHis, C-terminal, kept) VHH: EVQLVESGGGLVQAGDSLRLSCAASGDSHVLWRMGWFRQAPGKEREFVAAISLDGQFTNYADSVRGRFSISADSAKNTVYLQMNSLKPEDTAVYYCAALPFLDYWGQGTQVTVSS	binds
SR6v9 (VHH, not shown: 6xHis, C-terminal, kept) VHH: EVQLVESGGGLVQAGDSLRLSCAASGDSHVLWRMGWFRQAPGKEREFVAAISLDGQFTNYADSVRGRFSISADSAKYTVYLQMNSLKPEDTAVYYCAALPFLDYWGQGTQVTVSS	binds
SR6v7 (VHH, not shown: 6xHis, C-terminal, kept) VHH: EVQLVESGGGLVQAGDSLRLSCAASGDSYILWRMGWFRQAPGKEREFVAAISLDGQFTNYADSVRGRFSISADSAKNTVYLQMNSLKPEDTAVYYCAALPFLDYWGQGTQVTVSS	binds
